This note sets out measurements from the Immune Epitope Database (IEDB).

For assay [1], the target named is HLA-B*15:01. Description: IEDB peptide-MHC binding, purified MHC/direct/fluorescence; filed as Kd, often an IC50 or EC50 that approximates it; ≥ and ≤ were set here for values at or beyond the usual limits of such assays.
Assay [2] has as its target HLA-A*69:01. Described as above.
Assay [3] addresses HLA-A*11:01. The description is as above.
Assay [4] deals with HLA-B*39:01. The assay is described as above. The conditions noted are these: source organism: Burkholderia mallei ATCC 23344.
For assay [5], the target named is HLA-A*03:01. Described as above. The conditions noted are these: source organism: Burkholderia mallei.
For assay [6], the target named is HLA-A*31:01. The description is as above.
For assay [7], the target named is HLA-B*51:01. The assay is described as above. The conditions noted are these: source organism: Burkholderia mallei.
Assay [8] deals with HLA-B*38:01. Described as above. The conditions noted are these: source organism: Burkholderia mallei ATCC 23344.
In assay [9] the target is HLA-B*15:17. The assay is described as above.
Assay [10] has as its target HLA-B*40:01. The assay is described as above. The conditions noted are these: source organism: Burkholderia mallei.
In assay [11] the target is HLA-B*48:01. The assay is described as above.
Assay [12] concerns the target HLA-B*07:02. The assay is described as above.
The target in assay [13] is HLA-A*02:01. The assay is described as above. The conditions noted are these: source organism: Burkholderia mallei.
Assay [14] deals with HLA-B*58:01. The assay is described as above.
Assay [15] addresses HLA-B*27:05. Described as above.
Assay [16] addresses HLA-A*01:01. Described as above.
Assay [17] addresses HLA-B*18:01. Described as above. The conditions noted are these: source organism: Burkholderia mallei.
Assay [18] has as its target HLA-A*26:01. The description is as above.
Assay [19] concerns the target HLA-B*08:02. Described as above. The conditions noted are these: source organism: Burkholderia mallei ATCC 23344.
The target in assay [20] is HLA-B*57:01. The description is as above.
Assay [21] concerns the target HLA-B*46:01. Described as above.
For assay [22], the target named is HLA-A*02:07. Kind of assay: IEDB peptide-MHC binding, purified MHC/competitive/radioactivity; filed as Kd, often an IC50 or EC50 that approximates it; ≥ and ≤ were set here for values at or beyond the usual limits of such assays. The conditions noted are these: source organism: Homo sapiens.
The target in assay [23] is HLA-A*29:02. Described as above. The conditions noted are these: source organism: Homo sapiens.
Assay [24] has as its target HLA-A*02:01. Described as above. The conditions noted are these: source organism: Homo sapiens.
In assay [25] the target is HLA-B*58:01. The assay is described as above. The conditions noted are these: source organism: Homo sapiens.
In assay [26] the target is HLA-B*57:01. Described as above. The conditions noted are these: source organism: Homo sapiens.
In assay [27] the target is HLA-B*15:02. Description: IEDB peptide-MHC binding, purified MHC/competitive/fluorescence; filed as Kd, often an IC50 or EC50 that approximates it; ≥ and ≤ were set here for values at or beyond the usual limits of such assays. The conditions noted are these: source organism: Homo sapiens.
Assay [28] deals with HLA-B*46:01. Described as above. The conditions noted are these: source organism: Homo sapiens.
Assay [29] addresses HLA-B*58:01. Kind of assay: IEDB peptide-MHC binding, cellular MHC/competitive/fluorescence; ≥ and ≤ were set here for values at or beyond the usual limits of such assays. The conditions noted are these: source organism: Human herpesvirus 4 strain B95-8.
Assay [30] has as its target HLA-B*15:02. Kind of assay: IEDB peptide-MHC binding, purified MHC/direct/fluorescence; filed as Kd, often an IC50 or EC50 that approximates it; ≥ and ≤ were set here for values at or beyond the usual limits of such assays. The conditions noted are these: source organism: Giardia lamblia ATCC 50803.
In assay [31] the target is HLA-A*68:02. Described as above. The conditions noted are these: source organism: Giardia lamblia ATCC 50803.
Assay [32] deals with HLA-B*08:03. Described as above. The conditions noted are these: source organism: Giardia lamblia ATCC 50803.
Assay [33] addresses HLA-A*30:01. Kind of assay: IEDB peptide-MHC binding, purified MHC/competitive/fluorescence; filed as Kd, often an IC50 or EC50 that approximates it; ≥ and ≤ were set here for values at or beyond the usual limits of such assays. The conditions noted are these: source organism: Giardia lamblia ATCC 50803.
Assay [34] addresses HLA-B*08:01. The description is as above. The conditions noted are these: source organism: Giardia lamblia ATCC 50803.
Assay [35] concerns the target HLA-A*02:03. Described as above. The conditions noted are these: source organism: Giardia lamblia ATCC 50803.
For assay [36], the target named is HLA-B*15:09. Described as above. The conditions noted are these: source organism: Giardia lamblia ATCC 50803.
In assay [37] the target is HLA-A*02:01. Described as above. The conditions noted are these: source organism: Giardia lamblia ATCC 50803.
[38] abbreviates: source organism: Burkholderia mallei.
[39] abbreviates: source organism: Giardia lamblia ATCC 50803.

pIC50, pKd: −log10 of the molar value. Some results are limits rather than exact numbers.

Turning to AVAVARVAA, the pKd in [1] (setting [38]) is 5.38; in assay [2] (setting [38]), at most 4.70; in [3] (setting [38]), at most 4.70; in [4] it was at most 4.70; in assay [5], at most 4.70; in assay [6] (setting [38]) it was at most 4.70. The pKd in [7] is at most 4.70; in assay [8], at most 4.70; in assay [9] (setting [38]), at most 4.70; in assay [10], at most 4.70; in assay [11] (setting [38]), at most 4.70; in [12] (setting [38]) it was 6.66. Besides, the pKd in [13], in [14] (setting [38]), in [15] (setting [38]), in assay [16] (setting [38]), in [17] and in [18] (source organism: Burkholderia mallei ATCC 23344) was at most 4.70 throughout. For the same sequence, the pKd in assay [19], in [20] (setting [38]) and in assay [21] (setting [38]) was at most 4.70 each time.

As to FIKDGSSTY, the pKd is at most 4.20 in assay [22]; 6.29 in [23]; at most 4.11 in assay [24]; at most 4.40 in [25]; at most 4.21 in [26]; 8.41 in assay [27]. The sequence further had a pKd in assay [28] of 7.78.

For LSIFDTSLF, the pIC50 in assay [29] is 5.30.

Regarding QLKQRDALF, the pKd was 7.57 in assay [1] (setting [39]); at most 4.70 in assay [2] (setting [39]); at most 4.70 in assay [3] (setting [39]); at most 4.70 in assay [6] (setting [39]); 7.54 in assay [30]; 7.18 in assay [9] (setting [39]). Moreover, the pKd in [11] (setting [39]), in assay [12] (setting [39]), in assay [31], in [14] (setting [39]), in assay [15] (setting [39]) and in assay [16] (setting [39]) was at most 4.70 each time. Besides, the pKd was at most 4.70 in assay [18] (setting [39]); 6.77 in assay [32]; 5.83 in [20] (setting [39]); at most 4.70 in assay [21] (setting [39]); at most 4.70 in [33]; 6.87 in assay [34]. Moreover, the pKd in assay [35], in assay [36] and in assay [37] was at most 4.70 in each case.
